Measurements reported in the supplement of paper PMC10567573.

B1: SETD8 (parent)
chain: FVVEYHGDLIEITDAKKREALYAQ

Variants of: B1
Test: protein stability index of a GFP-peptide fusion (GPS, HEK-293T) (PSI 1-6); higher = more stable
Conditions: c terminus: a fixed tail appended
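Note: lentivirally expressed fusions sorted by FACS into six bins by GFP to DsRed ratio, PSI derived from sequencing read proportions per bin multiplied by bin number.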

Protein stability index, by site and new letter:
Q24: C 1.35 | A 2.5 | D 1.77 | H 1.64 | G 1.37 | I 1.75 | E 1.86 | F 1.5
K16: H 2.3 | C 1 | V 1.76 | W 3.04 | A 1.7 | S 2.59 | G 1.51 | N 1.68 | M 1.59 | I 1.78 | F 2.13 | T 1.28 | P 1.5 | R 2.07 | D 2.05 | Q 2.48 | E 2.08
A20: N 1.7 | F 1.39 | T 2.06 | G 1.75 | R 1.68 | P 1.08 | L 1.39 | Q 1.78 | C 2.08 | M 1.38 | Y 1.71 | K 1.85 | H 2.64 | E 2.67 | W 1.47 | D 2.48 | I 2.09 | V 1.97 | S 2.3
A23: G 1.13 | I 1.6 | N 1.69 | F 2.57 | V 1.65 | D 1.79 | H 2.1 | E 1.84 | C 1.29 | W 2.12 | K 2.17 | L 2.36 | M 1.83 | R 2.3 | S 1.92 | Q 1.85 | T 2.21 | Y 1.3 | P 1.89
Y22: I 1.94 | K 2.88 | R 1.99 | H 1.84 | V 2.08 | G 1.43 | C 2.13 | L 1.47 | E 2.6 | P 2.29 | D 2.21 | M 2.95 | N 3.26 | F 1.79 | W 1.56 | S 1.68 | Q 2.06 | T 1.76
L21: S 2.36 | G 2.05 | T 1.94 | D 2.52 | P 3.09 | K 2.38 | F 1.73 | C 1.82 | Q 2.21 | M 1.7 | H 2.79 | V 1.91 | I 1.36 | N 1.81 | E 2.88 | W 2.22 | R 1.39 | Y 1.97 | A 2.01
A15: M 2.69 | V 2.3 | Q 2.22 | I 2.04 | T 1.51 | N 1.43 | K 2.33 | L 1.93 | Y 1.13 | H 1.87 | P 2.73 | W 2.37 | R 3.06 | S 1.88
R18: I 3.16 | S 2.04 | N 2.31 | D 2.27 | Y 2.2 | H 2.39 | A 1.74 | C 2.32 | P 1.56 | V 1.82 | W 2.33 | F 1.75 | T 1.57 | Q 1.46 | L 1.87 | G 1.24 | M 2.98
E19: V 1.51 | F 2.97 | C 2.87 | S 1.81 | A 2.41 | R 2.84 | L 3.57 | T 2.42 | H 1.64 | G 1.75 | Q 1.7 | W 1.96 | P 1.84 | N 1.27 | K 1.47 | Y 1.81 | D 1.51 | M 2.3
K17: D 1.65 | V 2.07 | G 1.26 | S 1.81 | W 1.84 | T 1.6 | L 1.73 | C 2.17 | Q 1.85 | A 1.59 | N 2.06 | H 1.61 | M 2.46 | F 2.17 | I 1.75 | Y 1.34 | E 2.14 | R 1.33
